Nine molecules from patent US20100255011A1 (University of Washington, published 2010) can be followed below.

The target in assay [1] is CD46 on the surface of human cells (HeLa, Raji, PBMC and others) (human) (UniProt P15529). As to the kind of experiment: cell-based or functional assay.
In assay [2] the target is soluble recombinant CD46 (sCD46) (human) (UniProt P15529). Description: SPR, ratio of KDs. In general terms: SPR reads the build-up and loss of mass on a sensor chip optically.
The target is the same in assay [3]. Description: SPR, Biacore T100; biotinylated knob on streptavidin chip, sCD46 injected.
Assay [4] concerns the target T1, CD46 on the surface of human cells (HeLa, Raji, PBMC and others) (human, UniProt P15529 35-376).
T1 sequence: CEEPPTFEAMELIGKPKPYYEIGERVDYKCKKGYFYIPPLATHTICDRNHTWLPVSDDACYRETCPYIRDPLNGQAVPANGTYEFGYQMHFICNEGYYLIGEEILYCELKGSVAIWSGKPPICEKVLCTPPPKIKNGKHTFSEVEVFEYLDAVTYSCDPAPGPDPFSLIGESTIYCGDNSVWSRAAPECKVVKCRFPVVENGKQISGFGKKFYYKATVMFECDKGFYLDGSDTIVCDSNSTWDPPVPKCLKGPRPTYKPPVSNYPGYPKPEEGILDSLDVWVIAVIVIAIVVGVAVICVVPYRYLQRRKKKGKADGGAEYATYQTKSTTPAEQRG
Description: cell-based or functional assay.

The target in assay [5] is T2, soluble recombinant CD46 (sCD46) (human, UniProt P15529 35-343).
T2 construct: Soluble form produced as described in Wang et al. 2007; also called soluble CD46
T2 sequence: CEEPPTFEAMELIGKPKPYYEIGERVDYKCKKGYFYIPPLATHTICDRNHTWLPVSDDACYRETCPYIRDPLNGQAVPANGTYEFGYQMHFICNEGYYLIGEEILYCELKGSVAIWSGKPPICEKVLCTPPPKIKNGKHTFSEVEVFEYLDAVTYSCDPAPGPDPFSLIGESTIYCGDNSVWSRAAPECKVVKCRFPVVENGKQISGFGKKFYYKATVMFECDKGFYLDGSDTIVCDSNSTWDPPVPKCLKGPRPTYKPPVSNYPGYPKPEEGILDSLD
Description: SPR, Biacore T100; biotinylated knob on streptavidin chip, sCD46 injected.

For assay [6], the target named is T2, soluble recombinant CD46 (sCD46). Description: SPR, ratio of KDs.

In assay [1], “mouse anti-human CD46 antibody, clone MEM-258 (AbD Serotec)” showed a level of CD46 on the surface of HeLa cells (flow cytometry), decline of 30% and a viability of Raji cells with NHS (alone or with daclizumab), decline of 30%.

In general, Kd refers to the concentration at which binding is half-saturated. In general, koff refers to the rate constant with which the complex falls apart. A word on the kon: it is the second-order rate constant of association. Ad35 fiber knob mutant Thr245Ala: in assay [2], the fold higher affinity than the wild-type fiber knob protein was determined as 1.9 fold. Moreover, in assay [3], the Kd was 7.64 nM, the koff came out at 0.0173 s⁻¹ and the kon worked out at 2.25e+06 M⁻¹ s⁻¹.

For the molecule Ad35 fiber knob mutant Asp207Gly, in assay [2], the fold higher affinity than the wild-type fiber knob protein stood at 8.3 fold. In assay [3], the Kd was determined as 1.77 nM, the koff came to 0.0034 s⁻¹ and the kon was 3.51e+06 M⁻¹ s⁻¹.

For the molecule Ad35 fiber knob mutant Ile256Leu, the fold higher affinity than the wild-type fiber knob protein in assay [2] came out at 1.3 fold. In assay [3], the Kd came out at 11 nM, the koff worked out at 0.0236 s⁻¹ and the kon was found to be 2.13e+06 M⁻¹ s⁻¹.

As to “Ad35 fiber knob mutant Asp207Gly + Thr226Ala”, in assay [3], the Kd is 1.41 nM, the koff came out at 0.0026 s⁻¹ and the kon came out at 1.97e+06 M⁻¹ s⁻¹.

On to “Ad35 fiber knob mutant Asn217Asp + Thr245Pro + Ile256Leu”, for which, in assay [3], the equilibrium dissociation constant (Kd) was 4.82 nM, the koff amounted to 0.0097 s⁻¹ and the kon came out at 2.25e+06 M⁻¹ s⁻¹.

“Ad35 fiber knob mutant Asp207Gly + Thr245Ala + Ile256Leu”: in assay [3], the Kd was found to be 0.92 nM, the koff came to 0.0018 s⁻¹ and the kon came to 1.96e+06 M⁻¹ s⁻¹.

B1: wild-type Ad35 fiber knob protein (other)
chain: HHHHHHGDICIKDSINTLWTGINPPPNCQIVENTNTNDGKLTLVLVKNGGLVNGYVSLVGVSDTVNQMFTQKTANIQLRLYFDSSGNLLTDESDLKIPLKNKSSTATSETVASSKAFMPSTTAYPFNTTTRDSENYIHGICYYMTSYDRSLFPLNISIMLNSRMISSNVAYAIQFEWNLNASESPESNIATLTTSPFFFSYITEDDN
notes: Recombinant, made in E. coli, homotrimer; Biotinylated (EZ-Link Sulfo-NHS-LC-Biotin) for SPR; also called Ad35K; wild-type Ad35K
On to B1, for which the “killing of Raji cells by rituximab/NHS, increase against rituximab/NHS only” value in assay [4] was roughly 2 fold. In assay [5], the Kd amounted to 14.6 nM, the koff turned out to be 0.0234 s⁻¹ and the kon amounted to 1.52e+06 M⁻¹ s⁻¹.

B2: mutant Ad35 fiber knob protein with Asp207Gly and Thr245Ala substitutions (Ad35K++) (other)
chain: HHHHHHGDICIKDSINTLWTGINPPPNCQIVENTNTNDGKLTLVLVKNGGLVNGYVSLVGVSDTVNQMFTQKTANIQLRLYFDSSGNLLTGESDLKIPLKNKSSTATSETVASSKAFMPSTTAYPFNTATRDSENYIHGICYYMTSYDRSLFPLNISIMLNSRMISSNVAYAIQFEWNLNASESPESNIATLTTSPFFFSYITEDDN
notes: Recombinant, E. coli, spontaneously forms trimers; Biotinylated for SPR; also called Asp207Gly + Thr245Ala; Ad35K++ polypeptide
In the case of B2, the “fold higher affinity than the wild-type Ad35” value in assay [6] turned out to be 23.2 fold. In addition, in assay [4], the “decrease of mean CD46 fluorescence intensity on PBMCs” value was 1.97 fold; the “decrease of mean CD46 fluorescence intensity on Raji cells” value worked out at 7.54 fold; the “fold decrease in GFP expression after Ad35-GFP infection of HeLa cells pre-incubated 72 hours earlier, against Ad35K-279” value came out at 1000 fold; the “killing of Raji cells by rituximab/NHS, increase against rituximab/NHS only” value is roughly 10 fold. Moreover, in assay [5], the Kd is 0.63 nM, the koff came to 0.0017 s⁻¹ and the kon worked out at 2.48e+06 M⁻¹ s⁻¹.
